For four molecules, Kd, koff and kon results are on record in patent US20240084009A1 (HARPOON THERAPEUTICS, published 2024).

The target of experiment [1] is T1, cyno CD3e (Macaca fascicularis (cynomolgus monkey), UniProt Q95LI5).
T1 construct: not described; also called cynomolgus CD3ε; cynomolgus CD3
T1 sequence (CD3 epsilon, looked up): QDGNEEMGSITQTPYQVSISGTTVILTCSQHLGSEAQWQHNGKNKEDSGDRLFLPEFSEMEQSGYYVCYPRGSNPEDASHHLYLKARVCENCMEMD
As to the kind of experiment: kinetic Kd determination of the expressed scFv, method not named.

Experiment [2] deals with T2, biotinylated hu-CD3ε (human, UniProt P07766 23-126, limits assumed, biotinylated (site not stated)).
T2 construct: The construct is not described; also called biotin-CD3ε; human CD3ε
T2 sequence (P07766 23-126 limits assumed): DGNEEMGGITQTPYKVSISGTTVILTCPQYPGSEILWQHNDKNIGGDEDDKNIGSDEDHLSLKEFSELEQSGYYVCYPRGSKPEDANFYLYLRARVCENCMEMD
The experiment is described as above.

B1: Anti-CD3, clone 2G5 (scFv)
scFv: EVQLVESGGGLVQPGGSLKLSCAASGFTFNKYALNWVRQAPGKGLEWVARIRSKYNNYATEYADSVKDRFTISRDDSKNTAYLQMNNLKTEDTAVYYCVRHGNFGNSPISYWAYWGQGTLVTVSSGGGGSGGGGSGGGGSQTVVTQEPSLTVSPGGTVTLTCGSSTGAVTSGNYPNWVQQKPGQAPRGLIGGTNFLAPGTPERFSGSLLGGKAALTLSGVQPEDEAEYYCVLWYSNRWAFGGGTKLTVLHHHHHH
notes: Expressed in Expi293 from the pcDNA3.4 His6 vector
On to B1, for which, in experiment [1], the affinity, expressed as Kd, was 115 nM; the koff stood at 0.111 s⁻¹; the kon was found to be 964000 M⁻¹ s⁻¹. Further, in experiment [2], binding was put at a Kd of 117 nM, the koff stood at 0.115 s⁻¹ and the kon was found to be 994000 M⁻¹ s⁻¹.

B2: Anti-CD3, clone 10E4 (scFv)
scFv: EVQLVESGGGLVQPGGSLKLSCAASGFTFNKYPMNWVRQAPGKGLEWVARIRSKYNNYATYYADSVKDRFTISRDDSKNTAYLQMNNLKNEDTAVYYCVRHGNFNNSYISYWAYWGQGTLVTVSSGGGGSGGGGSGGGGSQTVVTQEPSLTVSPGGTVTLTCGSSTGAVTKGNYPNWVQQKPGQAPRGLIGGTKMLAPGTPARFSGSLLGGKAALTLSGVQPEDEAEYYCALWYSNRWVFGGGTKLTVLHHHHHH
notes: as for B1
As to B2, in experiment [1], binding was put at a Kd of 46.8 nM, the koff is 0.0238 s⁻¹ and the kon turned out to be 508000 M⁻¹ s⁻¹. Moreover, in experiment [2], the Kd is 49.8 nM, the dissociation rate constant (koff) came to 0.026 s⁻¹ and the kon came to 522000 M⁻¹ s⁻¹.

B3: Anti-CD3, clone 6A2 (scFv)
scFv: EVQLVESGGGLVQPGGSLKLSCAASGFMFNKYAMNWVRQAPGKGLEWVARIRSKSNNYATYYADSVKDRFTISRDDSKNTAYLQMNNLKTEDTAVYYCVRHGNFGNSYISYWATWGQGTLVTVSSGGGGSGGGGSGGGGSQTVVTQEPSLTVSPGGTVTLTCGSSFGAVTSGNYPNWVQQKPGQAPRGLIGGTKLLAPGTPARFSGSLLGGKAALTLSGVQPEDEAEYYCVLWYSNSWVFGGGTKLTVLHHHHHH
notes: as for B1
On to B3, for which, in experiment [1], binding was characterised by a dissociation constant (Kd) of 4.9 nM, the koff was determined as 0.00222 s⁻¹ and the kon was determined as 456000 M⁻¹ s⁻¹. Besides, in experiment [2], the affinity, expressed as Kd, was 4.7 nM; the koff amounted to 0.00248 s⁻¹; the kon is 522000 M⁻¹ s⁻¹.

B4: Anti-CD3, clone 3F2 (scFv)
scFv: EVQLVESGGGLVQPGGSLKLSCAASGFTYNKYAMNWVRQAPGKGLEWVARIRSKYNNYATYYADEVKDRFTISRDDSKNTAYLQMNNLKTEDTAVYYCVRHGNFGNSPISYWAYWGQGTLVTVSSGGGGSGGGGSGGGGSQTVVTQEPSLTVSPGGTVTLTCGSSKGAVTSGNYPNWVQQKPGQAPRGLIGGTKELAPGTPARFSGSLLGGKAALTLSGVQPEDEAEYYCTLWYSNRWVFGGGTKLTVLHHHHHH
notes: as for B1
For B4, in experiment [1], the equilibrium dissociation constant (Kd) is 6.6 nM, the off-rate (koff) was 0.00438 s⁻¹ and the kon turned out to be 712000 M⁻¹ s⁻¹. In experiment [2], this molecule displayed a Kd of 8 nM, a koff of 0.00502 s⁻¹ and a kon of 704000 M⁻¹ s⁻¹.
